Test: yeast display, Sf9 membrane polyspecificity reagent, FACS + sequencing; frameworks hold sequencing errors
Outline: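 Galactose induction of a Saccharomyces cerevisiae BJ5465 synthetic nanobody display library ran 36–48 hours. The cells were then stained for 1 hour at 4 °C with 10% biotinylated, detergent-solubilized Sf9 membrane reagent, pulled down on streptavidin microbeads and FACS-sorted into low and high (top ~1%) gates on expression and reagent-binding fluorescence. Labels for polyreactivity follow the gate of origin.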

| Sequence | polyreactivity (PSR sort gate) |
| --- | --- |
| QVQLVESGGGLVQAGGSLRLSCAASGRNFLIYAMGWYRQAPRKERELVADISTSGGTTYYADSVKGRFTISRDNAKNTVYLQMNSLKPADTAVYYCAAGSHYWKYYSWGQGTQVTVSS | high polyreactivity |
| QVQLVESGGGLVQAGGSLRLSCAASGRNFLYNAMGWYRQAPGKERELVAVISKRGGRTYYADSVKGRFTISRDNAKNTVYLQMNSLKPEDTAVYYCAAAYVTPPGPLRYNEYYWGQGTQVTVSS | high polyreactivity |
| QVQLVESGGGLVQAGGSLRLSCAASGRNFRWYAMGWYRQAPGKERELVAAITRGDITNYADSVKGRFTISRDNAKKTVYLQMNSLKPEDTAVYYCNAQWYDIYDYWGQGTQVTVSS | high polyreactivity |
| QVQLVESGGGLVQAGGSLRLSCAASGRNFSSYAMGWYIQAPGKERELVAAITSGGRTKYADSVKGRFTISRDNAKNTVYLQMNSLKPEDTAVYYCAARNHWVRYLRYDYWGQGTQVTVSS | high polyreactivity |
| QVQLVESGGGLVQAGGSLRLSCAASGRNFSYYAMGWYRQAPGKERELVAFISSGGNTYYADSVKGRFTISRDNAKNTVYLPMNSLKPEDTAVYYSGADPNAQGYPQVNYWGQGTQVTVSS | high polyreactivity |
| QVQLVESGGGLVQAGGSLRLSCAASGRNFTSNAMGWYRQAPGKERELVAAITQSGGSTYYADSVKGRFTISRDNAKNTVYLQMNSLKPVDTAVYYCNAETTGRTEYNYWGQGTQVTVSS | low polyreactivity |
| QVQLVESGGGLVQAGGSLRLSCAASGRNFYGYTMGWYRQAPGKERELVAAITSGGSTYYADSVKGRFTISRDNAKNTVYLQMNSLKPEDTAVYYCNAKYNGYYRRFSEYDYWGQGTQVTVSS | high polyreactivity |
| QVQLVESGGGLVQAGGSLRLSCAASGRNFYHYAMGWYRQAPGKEREFVAAISVSGGRTYYADSVKGRFTISRDNAKNTVYLQMNSLKPEDTAVYYCAAEPEWPYGRFDYWGQGTQVTVSS | high polyreactivity |
| QVQLVESGGGLVQAGGSLRLSCAASGRNFYYYAMGWYRQAPGKEREFVARNRSSGGSTYADSVKGRFTISRDNAKNTVYLQMNSLKPEDTAVYYCARDGYTAVEYDYWGQGTQVTVSS | low polyreactivity |
| QVQLVESGGGLVQAGGSLRLSCAASGRNIYTNAMGWYRQAPGKERELVAAINRSGGITYYADSVKGRFTISRDNAKNTVDLQMNSLKPEDTAVYYCAKDYSWASYNHDYWGQGTQVTVSS | low polyreactivity |
| QVQLVESGGGLVQAGGSLRLSCAASGRNLPSYAMGWYRQAPGKERELVAAISGSGGRTYYSDSVKGRFTISRDNAKNTVYLQMNSLKQEDTAVYYCAARQDDYGKINYYWGQGTQVTVSS | high polyreactivity |
| QVQLVESGGGLVQAGGSLRLSCAASGRNSPSYAMGWYRQAPGKERELVAAISKRGGTTYYADSVKGRFTISRDNAKNTVYLQMNSLKPEDTAVYYCSARDYSHPTDDNYWGQRTQVTVSS | high polyreactivity |
| QVQLVESGGGLVQAGGSLRLSCAASGRNYVYNAMGRYRQAPGKETELVAAITSSGGSTYYADSVKGRFTISRDNAKNSVDLQMNSLKPEDTAVYYCAADVQPDTRSTPEMDYWGQGTQVTVSS | low polyreactivity |
| QVQLVESGGGLVQAGGSLRLSCAASGRPFISYAMGWYRQAPGKERELVAAISSSGGSTYYADSVKGRFTMSRDTAKNTVYLQMNSLKPEDTAVYYCNAAKVRRDPAWRLLDYWGQGTQVTVSS | low polyreactivity |
| QVQLVESGGGLVQAGGSLRLSCAASGRPFKRYAMGWYRQAPGKEREVVAAITASGGNTYYADSVKGRFTISRDNAKNTVYLQMNSLKPEDTAVYYCARGSYSGGSKYNYWGQGTQVTVSS | high polyreactivity |
| QVQLVESGGGLVQAGGSLRLSCAASGRPFPFNAMGWSRQAPGKDRELVAAISGRGGSTYYADSVKGRFTISRDNATNTGSLQRNSQKPEDTAVDYCAARLPWSYYRTQGYNSWGQGTQGTVSS | high polyreactivity |
| QVQLVESGGGLVQAGGSLRLSCAASGRPFPGNAMGWYRPAPGKERELVAAISSSGGSTHYADSGKGRFTISRDTAKNTVYLQMNSLKPEDTAVYYCNARSIGYSYRYYDWGQGTQVTVSS | high polyreactivity |
| QVQLVESGGGLVQAGGSLRLSCAASGRPFRGNAMGWYRQAPGKERQLVAAITGTGGSTYYADSVKGRFTISRDNAKNTVYLQMNSVKPEDTAVYYCAAVLRGHNGLNFEYWGQGTQVTVSS | high polyreactivity |
| QVQLVESGGGLVQAGGSLRLSCAASGRPFYVYAMGWYRQAPGKERELVASIRRSGGITYYADSVKGRFTISRDNAKNTVYLQMNSLKPEDTAVYYCNARRGPGRREYDYWGQGTQVTVSS | high polyreactivity |
| QVQLVESGGGLVQAGGSLRLSCAASGRRFVKYAMGWYRQAPGKERELVAAITKSGSSTYYSDSVKGRFTISRDNAKNTVYLQMNSLKPEDTAVYYCAALTISRSRTGYYWGQGTQVTVSS | low polyreactivity |
| QVQLVESGGGLVQAGGSLRLSCAASGRSFAWYTMGWYRQAPGKERELVAAISGSGGSTYYADSVKGRFTISRDNAKNTVYLQMNSLKPEDSALYYGARRVDSYYGHTRFYYWGQGTQVTVSS | high polyreactivity |
| QVQLVESGGGLVQAGGSLRLSCAASGRSFGTYAMGWYRQAPGKERELVAAISRSGGRTYYADSVKGRFTISRDNAKNTVYLQMNSLKPEDTAVYYCAAATGSVPPYDYWGQGTQVTVSS | high polyreactivity |

| Sequence | polyreactivity (PSR sort gate) |
| --- | --- |
| QVQLVESGGGLVQAGGSLRLSCAASGRSFVGNAMGWYRQAPGKERELVASITRGGRTNYADSVNGRFTISRDNAKNTVYLQMNSLKPEDTAVYYCNAPGVTRAYLVGYDYWGQGTQVTVSS | low polyreactivity |
| QVQLVESGGGLVQAGGSLRLSCAASGRSIVGYTMGWYTQAPGKERELVAAITSGGSTYYADSVKGRFTISRDNAKNTVYLQMISLKPEDTAVYYCSAYVRYSTPGKLYQYGYWGQGTQVTVSS | high polyreactivity |
| QVQLVESGGGLVQAGGSLRLSCAASGRSLRGYAMGWYRQAPGKERELVAAISRRGGSTRYADSVKGRFTISRDNAKNTVYLQMNSLKPEDTAVYYCAAPDFPKYYPTAYLQADEYWGQGTQVTVSS | high polyreactivity |
| QVQLVESGGGLVQAGGSLRLSCAASGRTCPYYVMGWFRQAPGKERELVAAIRRTGGSTYYADSVKGRFTISRDNAKNTVYLQMNSLKPEDTAVYYFTKSHSILYEGGYDYWGQGTQVTVSS | low polyreactivity |
| QVQLVESGGGLVQAGGSLRLSCAASGRTCRHNAMGWYRQAPGTERELVAAISSSGTNTHYADSVKGRFTISRDNAKNTVYLQMNSLKPEDTAVYYCAADRWGARRKQYHENGYWAQGTQVTVSS | high polyreactivity |
| QVQLVESGGGLVQAGGSLRLSCAASGRTFAANTMGWYRQAPGKERELVAAINAGGSTYYADSVKGRFTISRDTAKNTVYLQMNSLKPEDTAVYYCAAKGSGYYGRQRIYSYTYDYWGQGTQVTVSS | high polyreactivity |
| QVQLVESGGGLVQAGGSLRLSCAASGRTFAAYAMGWYRQAPGKERELGAAISSSSGNTYYADSVKGRFTISRDNAKNTVYLQMYSLKPEDTAVYYCNAQRRFNANYWYDYWGQGTQVTVAS | high polyreactivity |
| QVQLVESGGGLVQAGGSLRLSCAASGRTFAAYAMGWYRQAPGKERELVATIRRGGTTDYADSVKGRFTISRDNAKNTVYLQMNSLKPEDTAVYYCNARSRTYRTRRYDYWGQGTQVTVSS | high polyreactivity |
| QVQLVESGGGLVQAGGSLRLSCAASGRTFAHYTMGWYRQEPGKERELVAGITRGGSTYYADSVKGRFTISRDNAKNNVYLQMNSVKPEDTAVYYCNAVTNYFYRRMEYWGQGTQVTVSS | high polyreactivity |
| QVQLVESGGGLVQAGGSLRLSCAASGRTFAINAMGWYRQATAKERELVADITTDGYTYYADSVKGRFTISRDNAKNTVYLQMNSLKPEDTAVYYCATDSLDYFIRFKQFGYWGQGTQVTVSS | low polyreactivity |
| QVQLVESGGGLVQAGGSLRLSCAASGRTFAINTMGWYRQAPGKEREFVASITRRGGSTYYADSVKVRFTISLDNAKNTVYFQMNSLKPEDTAVYYCNAELRWRLRARAAYYYWGQGSQVTVSS | high polyreactivity |
| QVQLVESGGGLVQAGGSLRLSCAASGRTFAIYAMGWYRQAPGKERELVASISSSGDRTYYADSVKGRFTISRDNAKNTVYLQMNSLKPEDTAVYYCAARWRYTYYYWGQGTQVTVSS | high polyreactivity |
| QVQLVESGGGLVQAGGSLRLSCAASGRTFAIYTMVWSRQAPGKERELVATISGSAGNTYYADSVKGRFTISRDNAKNTVYLQMNSLKPEDTAVYNCAARQRKARQIVLLDYWGQGTQVTVSS | high polyreactivity |
| QVQLVESGGGLVQAGGSLRLSCAASGRTFALYAMGWYRQAPGKERELVAAISSGGSTYYADSVKGRFTISRDNAKNTVYLQMNSLKPEDTAVYYCNARPKWGNRQSVRGYYILSPGGRMNYWGQGTQVTVSS | high polyreactivity |
| QVQLVESGGGLVQAGGSLRLSCAASGRTFANNAMGWYRQAPGKERELVAAISSSDDSTYYADSVKGRFTISRDNAKNTVYLQMNILKPEDTAVYYCAAPYPGHQSRFGYESWGQGTQVTVSS | low polyreactivity |
| QVQLVESGGGLVQAGGSLRLSCAASGRTFANYAMGWSRQAPGKERELVAAISSGGNTYYADSVKGRFTISRDNAKNTVYLQMNSLKPEDTSVYYCNADYLIKYDYWGKGTQVTVSS | high polyreactivity |
| QVQLVESGGGLVQAGGSLRLSCAASGRTFANYAMGWYRQAPGKERELVATITWSDGSTYADSVKGRFTISRDNAKNTVYLQMNSLKPEDTAVYYCATRRYGKVFYPSQYTRYDYWGQGTQVTVSS | high polyreactivity |
| QVQLVESGGGLVQAGGSLRLSCAASGRTFAPNAMGWYRQAPGKEREMVAAISWSGTSTYYADSVKGRFTISRDNAKNTVYLQMNSLKPEDTAVYYCAADLEGSVGSPLTYDYWGQGTQVTVSS | low polyreactivity |
| QVQLVESGGGLVQAGGSLRLSCAASGRTFAPNTMGWYRQAPGKERELVATITVSGGITYADSVKGRFTISRDNAKNTVYLQMNSLKPEDTAVYYCAARTPGWYLPRDYWGQGTQVTVSS | low polyreactivity |
| QVQLVESGGGLVQAGGSLRLSCAASGRTFAQYGMGWYRQAPGKERELVAAISRSGGRTYYADSVKGRFTISRDNAKNTVYLQMNSLKPEDTAVYYCAARAYLISSSTPFWTGYDSWGHGTQVTVSS | low polyreactivity |
| QVQLVESGGGLVQAGGSLRLSCAASGRTFARYAKGWYRQAPGKERELVAVISRTGSTYYADSVKGRFTISRDNAKNTVYLQMNSLKPEDTAVYYCATVYYYLAYGWSYSDMDYWGQGTQVTVSS | high polyreactivity |

Reference: the nanobody polyreactivity screen of Harvey et al. (2022)
